The target in assay [1] is ACE2. Briefly: ACE2 binding detection ELISA (ACE2 on solid phase, detection with anti-spikeRBD antibody); concentrated supernatant of virus-infected Vero cells. (ELISA stands for enzyme-linked immunosorbent assay.)
In assay [2] the target is ACE2. Briefly: ratio of ACE2 binding ELISA to Spike RBD detection ELISA; concentrated supernatant of virus-infected Vero cells.
Assay [3] deals with ACE2.

From EP4574169A1 come the findings set out here.

Where two headings read alike, the source gives them in different places.

Take “Cov2SPPF (polypeptide B: structure of A with further deletion of the furin cleavage site, R683A R685 (from UniProt P0DTC2 14-1273)”: the ACE2 bind was 0.5 ng/mL in assay [1] and 7 ng/mL in assay [3]. The ACE2 bind/ Spike RBD in assay [2] came to 0.094; in assay [3], 0.076.
On the same counts, the results for “Cov2STH (polypeptide C: mu-phosphatase leader, extracellular region (ECD) of the spike protein, PP m (from UniProt P0DTC2 16-1213)” are 19.8 ng/mL, 202 ng/mL, 6.5 and 2.3.
